Results on one molecule are retold here after patent EP0866075B1, “Method to treat microbial infections by uncoupling of phosphotransferase system and appropriate agents therefor” (Arpida AG,, priority 1997, dated 1998).

For the experiment, the target named is enzyme I (phosphoenolpyruvate-protein phosphotransferase, EC 2.7.3.9) of the E. coli phosphotransferase system (E. coli), P08839. Kind of experiment: cell-based or functional assay.

SSLRGHRWVY (modifications not checked) [peptide 17 …] gave an inhibition IC50 of 120 µM and an uncoupling Pi/peptide (x IC50/h) (Pi/peptide (x IC50/h)) of 50.3.
